Assay [1] has as its system N2a cells. Briefly: MTT assay of N2a cell growth / vitality. It counts as cell-based, murine. Particulars: 5 days; for N2a cellular growth by MTT assay at DIV5: naive N2a cells seeded at 2 × 10^3 cells/cm^2, 100 ng/mL daily, vs. GFP control, n = 10-12; for N2a cellular vitality by MTT assay at DIV5: N2a cells 2 × 10^3 cells/cm^2, 3 μM daily, normalized to vehicle (Lorlatinib) or GFP (rNegr1, PepA-1), n = 10. The procedure:
N2a (Neuro2a, ATCC CCL-131), HEK293 (ATCC CRL-1573), U87 MG (ATCC® HTB14), SKMEL5 (ATCC® HTB70), MCF7 ATCC® HTB-22, A549 ATCC® CCL-185, and SHSY5Y (ATCC® CRL 2266™) cells were grown in DMEM high glucose (Gibco, Thermo Fisher Scientific, Waltham, MA, USA) with 10% FBS, 1% penicillin/streptomycin, and 1% glutamine in a humidified atmosphere of 5% CO2 at 37 °C. In the soft-agar assays, we added 0.6% soft agar (Gibco, Thermo Fisher Scientific, Waltham, MA, USA) in media to 2 × 10^3 cell/cm^2 N2a cells to obtain a final concentration of 0.4% agar. We cultured the cells onto a 0.6% soft agar layer. N2a and HEK293 cells were transfected with the different constructs for 48 h using Lipofectamine 2000 (Invitrogen, Thermo Fisher Scientific Waltham, MA, USA). Stable N2a clones expressing murine Negr1 were isolated upon Neomycin selection (1 μg/mL).
We performed the 3-(4,5-dimethylthiazol-2-yl)-2,5-diphenyltetrazolium bromide (MTT) assay to appreciate culture vitality. We cultured N2a cells in a 96-well plate at a concentration of 2 × 10^3 cells/cm^2. The treatment condition is indicated in the Results Section 3. At the end of the treatment, we added the MTT solution to the cell medium at a final concentration of 0.25 mg/mL. The incubation lasted 30 min at 37 °C. Next, we removed the medium and collected the formazan precipitates in DMSO (200 μL). We measured the absorbance at 570 nm using a spectrophotometer (Varioskan LUX, Thermofisher, Waltham, MA, USA) as a proxy for cell viability. We expressed relative cell viability fold over the control condition.
For orientation: Tetrazolium assays rely on reduction of a dye to a coloured formazan, in cell work by metabolically active cells.

Assay [2] has as its target T1, ALK (Mus musculus, UniProt P97793).
T1 construct: we evaluated ALK and N-MYC protein expression by Western blotting; endogenous in cells; host or cells: N2a (Neuro2a, ATCC CCL-131)
Briefly: Western blotting of ALK protein level in treated N2a cells. The format is cell-based, murine. Particulars: n = 6; for ALK protein level (Western blotting), chronic treatment: 2 × 10^3 cells/cm^2 N2a cells, 100 ng/mL daily for five days, fold over GFP. Here is the method:
(§1) We assessed protein level and relative phosphorylation by Western blotting as in [31]. Briefly, upon a wash in PBS, we solubilized cells and tumor specimens in lysis buffer (150 mM NaCl, 50 mM HEPES, 0.5% NP40, 1% sodium-deoxycholate). After 1 h under mild agitation, we clarified the lysate by centrifugation for 20 min at 16,000× g. We performed all experimental procedures at 4 °C. We evaluated protein concentrations via Bradford assay (Bio-Rad, Hercules, CA, USA). For Western blotting experiments, we diluted an equal amount of proteins with 0.25% 5× Laemmli buffer. We separated the samples on 10% SDS-PAGE gels and transferred them onto a nitrocellulose membrane (Sigma-Aldrich) at 80 V for 120 min at 4 °C. Primary antibodies were:
Antibodies were applied overnight in blocking buffer (20 mM Tris, pH 7.4, 150 mM NaCl, 0.1% Tween 20, and 5% nonfat dry milk). We detected proteins using the ECL prime detection system (GE Healthcare, Chicago, IL, USA) with the imaging ChemiDoc Touch system (Bio Rad, Hercules, CA, USA). We quantified the optical density of the specific bands with ImageLab 3.0 software (Bio Rad, Hercules, CA, USA).
(In general: In western blotting, separated proteins are transferred to a membrane and probed.)

In assay [3] the test system is N-MYC. Briefly: Western blotting of N-MYC protein level in treated N2a cells. It counts as cell-based, murine. The note with it: n = 6; for N-MYC protein level (Western blotting), chronic treatment: 100 ng/mL daily for five days. Here is the method:
as §1
Beta-actin (Santa Cruz Biotechnology, Dallas, TX, USA, sc-47778), ALK (Santa Cruz Biotechnology, Dallas, TX, USA, sc-398791), N-myc (Santa Cruz Biotechnology, Dallas, TX, USA, sc-56729), p44/42 MAPK (Erk1/2) (137F5) Rabbit mAb (Cell Signaling Technology, Danvers, MA, USA), Akt (pan) (11E7) Rabbit mAb (Cell Signaling Technology, Danvers, MA, USA), Phospho-Akt (Ser473) (D9E) XP® Rabbit mAb (Cell Signaling Technology, Danvers, MA, USA), S6 Ribosomal Protein (5G10) Rabbit mAb (Cell Signaling Technology, Danvers, MA, USA), and Negr1 (AF5394) Goat polyclonal (R&D system, Minneapolis, MN, USA). Antibodies were applied overnight in blocking buffer (20 mM Tris, pH 7.4, 150 mM NaCl, 0.1% Tween 20, and 5% nonfat dry milk). We detected proteins using the ECL prime detection system (GE Healthcare, Chicago, IL, USA) with the imaging ChemiDoc Touch system (Bio Rad, Hercules, CA, USA). We quantified the optical density of the specific bands with ImageLab 3.0 software (Bio Rad, Hercules, CA, USA).

Assay [4] concerns N2a cells. The assay is described as follows: Growth of subcutaneous N2a tumors in nude mice. It counts as in vivo. The note with it: 1 million N2a cells s.c. in CD1 nude mice; 2 ug in situ every second day from 100 mm^3 tumor volume; vs. GFP; n = 9 (PepA), n = 5 (PepA-1). From the text:
All procedures involving animals were approved by Institutional and National Agencies (authorization 559/2016-PR).

The subject of assay [5] is ALK mRNA. The assay is described as follows: RT-qPCR of ALK mRNA level in treated N2a cells. The format is cell-based, murine. Particulars: 5 × 10^3 cells/cm^2 N2a cells, 100 ng/mL, 10 min to 6 h; normalized over housekeeping genes; n = 6. From the text:
(§2) Total RNA was isolated from cell cultures using a Single Cell RNA Purification Kit (Norgen Thorold, ON, Canada) according to manufacturer’s instruction. After extraction, the RNA concentration was quantified with a NanoDrop 2000C spectrophotometer (Thermo Fisher Scientific, Waltham, MA, USA). After DNAse treatment (Thermo Fisher Scientific, Waltham, MA, USA, according to manufacturer’s protocol), complementary DNA (cDNA) was generated using qRT SuperMix (Bimake). The cDNAs were used for quantitative PCR (qPCR) using iTaq Universal SYBR® Green Supermix and CFX96 RealTime System (BioRad, Hercules, CA, USA) for 40 cycles. We used two independent couples of primers to assess mRNA expression levels (Table 3). All samples were measured as technical duplicates. We calculated mRNA expression levels as the average between the two couple of primers, normalized for the mathematical mean of the relative abundance of actinB and GAPDH (housekeeping genes). Data shown were produced using Bio-Rad CFX Manager 3.1 software and analyzed according to the ddCt method.

Assay [6] has as its system N-MYC mRNA. Briefly: RT-qPCR of N-MYC mRNA level in treated N2a cells. The format is cell-based, murine. Particulars: 5 × 10^3 cells/cm^2 N2a cells, 100 ng/mL, 10 min to 6 h; normalized over housekeeping genes; n = 6.
Source text: as §2
Background: Real-time PCR tracks product formation cycle by cycle.

[7] abbreviates: 2 × 10^3 cells/cm^2 N2a cells, fold over GFP.
The mark [8] stands for this setting: 5 × 10^3 cells/cm^2 N2a cells, 100 ng/mL, 10 min to 6 h, normalized over actin, vs. GFP.

Entries after “also recorded” stand apart in the source; their conditions may differ.

T1 sequence (P97793 19-1621): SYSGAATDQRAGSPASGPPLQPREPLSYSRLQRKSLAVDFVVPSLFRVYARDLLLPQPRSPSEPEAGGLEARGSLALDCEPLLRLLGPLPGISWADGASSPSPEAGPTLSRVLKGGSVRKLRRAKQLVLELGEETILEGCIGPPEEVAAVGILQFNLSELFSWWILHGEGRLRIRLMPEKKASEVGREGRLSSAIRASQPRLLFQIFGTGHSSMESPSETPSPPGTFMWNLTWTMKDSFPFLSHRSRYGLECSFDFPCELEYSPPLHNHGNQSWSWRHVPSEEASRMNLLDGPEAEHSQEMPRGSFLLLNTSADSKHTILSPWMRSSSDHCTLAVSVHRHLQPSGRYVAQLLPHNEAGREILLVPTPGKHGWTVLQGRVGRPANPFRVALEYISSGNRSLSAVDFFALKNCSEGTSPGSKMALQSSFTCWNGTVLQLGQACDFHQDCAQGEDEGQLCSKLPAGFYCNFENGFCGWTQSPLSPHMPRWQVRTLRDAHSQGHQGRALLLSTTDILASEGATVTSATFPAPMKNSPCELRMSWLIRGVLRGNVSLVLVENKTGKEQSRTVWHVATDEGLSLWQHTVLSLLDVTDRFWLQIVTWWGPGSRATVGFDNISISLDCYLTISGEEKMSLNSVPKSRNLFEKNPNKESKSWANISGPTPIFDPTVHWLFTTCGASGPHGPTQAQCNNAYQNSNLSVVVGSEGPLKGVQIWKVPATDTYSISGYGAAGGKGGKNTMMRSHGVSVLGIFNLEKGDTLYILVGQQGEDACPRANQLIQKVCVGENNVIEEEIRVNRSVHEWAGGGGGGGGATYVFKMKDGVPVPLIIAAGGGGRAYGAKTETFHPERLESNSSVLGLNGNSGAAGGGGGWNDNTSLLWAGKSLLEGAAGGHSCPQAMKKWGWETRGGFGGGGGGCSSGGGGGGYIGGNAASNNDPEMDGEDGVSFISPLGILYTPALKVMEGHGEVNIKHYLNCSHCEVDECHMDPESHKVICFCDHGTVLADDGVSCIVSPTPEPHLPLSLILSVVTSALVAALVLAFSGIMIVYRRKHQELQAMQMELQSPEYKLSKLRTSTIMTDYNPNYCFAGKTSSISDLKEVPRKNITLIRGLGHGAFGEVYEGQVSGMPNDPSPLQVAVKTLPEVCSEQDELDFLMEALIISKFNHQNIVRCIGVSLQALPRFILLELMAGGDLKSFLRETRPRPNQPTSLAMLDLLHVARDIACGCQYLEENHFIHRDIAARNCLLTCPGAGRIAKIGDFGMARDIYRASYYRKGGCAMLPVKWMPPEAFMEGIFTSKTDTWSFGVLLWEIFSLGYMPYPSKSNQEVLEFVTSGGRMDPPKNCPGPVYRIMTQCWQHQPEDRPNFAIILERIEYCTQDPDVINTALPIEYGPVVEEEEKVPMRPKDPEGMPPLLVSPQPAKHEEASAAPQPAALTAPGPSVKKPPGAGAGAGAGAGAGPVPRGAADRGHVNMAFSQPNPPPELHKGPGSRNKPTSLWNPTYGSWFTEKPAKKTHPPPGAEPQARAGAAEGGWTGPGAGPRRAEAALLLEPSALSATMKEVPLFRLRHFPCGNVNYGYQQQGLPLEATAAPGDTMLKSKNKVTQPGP

Consider “VDFPWAAVDNMLVRKGDTAVLRCYLEDGASKGAWLNRSSIIFAGGDKWSVDPRVSISTLNKRDYSLQIQNVDVTDDGPYTCSVQTQHTPRTMQVHL [PepA, Negr1 first Ig domain, strep-FLAG tagged recombinant protein purified from HEK293 cells]”, for which, in assay [1], the “N2a cellular growth by MTT assay at DIV5” value was “significantly reduced N2a proliferation”. Moreover, in assay [2], the “ALK protein level (Western blotting), chronic treatment” value is reported as “robust reduction”. In assay [3] (setting [7]), the “N-MYC protein level (Western blotting), chronic treatment” value is given as “robust reduction”. Also, the “Tumor growth (tumor volume, fold over day 1)” value in assay [4] is “robust growth reduction”.
As to `C[C@H]1Oc2cc(cnc2N)-c2c(nn(C)c2C#N)CN(C)C(=O)c2ccc(F)cc21` [Lorlatinib, reference compound], in assay [1], the “N2a cellular vitality by MTT assay at DIV5” value is given as “impaired N2A growth to a similar extent”. Moreover, the “N-MYC protein level (Western blotting), chronic treatment at 3 μM” value in assay [3] (2 × 10^3 cells/cm^2 N2a cells, 3 μM daily for five days, fold over GFP) is given as “strongly reduced”.

B1: rNegr1: Recombinant Strep-FLAG Negr1 (murine) expressed in and purified from HEK293 cells (protein, UniProt Q80Z24 32-318, looked up)
Neuronal growth regulator 1: VDFPWAAVDNMLVRKGDTAVLRCYLEDGASKGAWLNRSSIIFAGGDKWSVDPRVSISTLNKRDYSLQIQNVDVTDDGPYTCSVQTQHTPRTMQVHLTVQVPPKIYDISNDMTINEGTNVTLTCLATGKPEPVISWRHISPSAKPFENGQYLDIYGITRDQAGEYECSAENDVSFPDVKKVRVIVNFAPTIQEIKSGTVTPGRSGLIRCEGAGVPPPAFEWYKGEKRLFNGQQGIIIQNFSTRSILTVTNVTQEHFGNYTCVAANKLGTTNASLPLNPPSTAQYGITG
modifications: Strep-FLAG tag
notes: Recombinant Strep-FLAG Negr1 (murine) expressed in and purified from HEK293 cells
For the molecule B1, in assay [1], the “N2a cellular vitality by MTT assay at DIV5” value is listed as “impaired N2A growth to a similar extent” and the “N2a cellular growth by MTT assay at DIV5” value is given as “significantly reduced N2a growth; also recorded: significantly reduced N2a proliferation”. Further, the “ALK protein level (Western blotting), chronic treatment” value in assay [2] is recorded as “did not overtly affect”. Moreover, the “ALK protein level (Western blotting), acute treatment” value in assay [2] (setting [8]) is “reduction”. Moreover, the “N-MYC protein level (Western blotting), chronic treatment” value in assay [3] (setting [7]) is “did not overtly affect”. Further, the “N-MYC protein level (Western blotting), acute treatment” value in assay [3] (setting [8]) is “reduction”. For the same molecule, in assay [5], the “ALK mRNA level (RT-qPCR)” value is recorded as “did not notice an overt impact”. The “N-MYC mRNA level (RT-qPCR)” value in assay [6] was “light but significant effect”.
